From patent publication US20240287154A1, “MC3R AGONIST PEPTIDES” (The Regents of the University of Michigan, priority 2021, published 2024)
Non-standard residues stand in square brackets, D forms with d. Residues, ends and D or L forms follow the SMILES beside them. PKcap1 = N-terminal cap C18 diacid-γGlu-mPEG2; PKcap2 = N-terminal cap Aryl(4-I)-Gly-mPEG2; Bip = N[C@@H](Cc1ccc(-c2ccccc2)cc1)C(=O)O; Phe(4-Br) = N[C@@H](Cc1ccc(Br)cc1)C(=O)O; Phe(4-Cl) = N[C@@H](Cc1ccc(Cl)cc1)C(=O)O; Phe(4-I) = N[C@@H](Cc1ccc(I)cc1)C(=O)O; Nle = CCCC[C@H](N)C(=O)O; dAbu = CC[C@@H](N)C(=O)O

B1: CTX-1171 (peptide)
peptide: H-[dY]V[Nle][dA]H[Phe(4-I)]R[dW]D-NH2
SMILES: CCCC[C@H](NC(=O)[C@@H](NC(=O)[C@H](N)Cc1ccc(O)cc1)C(C)C)C(=O)N[C@H](C)C(=O)N[C@@H](Cc1c[nH]cn1)C(=O)N[C@@H](Cc1ccc(I)cc1)C(=O)N[C@@H](CCCNC(=N)N)C(=O)N[C@H](Cc1c[nH]c2ccccc12)C(=O)N[C@@H](CC(=O)O)C(N)=O
B2: CTX-1164 (peptide)
peptide: Ac-[Nle][dA]HFR[dW]GKPV-NH2
SMILES: CCCC[C@H](NC(C)=O)C(=O)N[C@H](C)C(=O)N[C@@H](Cc1c[nH]cn1)C(=O)N[C@@H](Cc1ccccc1)C(=O)N[C@@H](CCCNC(=N)N)C(=O)N[C@H](Cc1c[nH]c2ccccc12)C(=O)NCC(=O)N[C@@H](CCCCN)C(=O)N1CCC[C@H]1C(=O)N[C@H](C(N)=O)C(C)C
B3: CTX-1153 (peptide)
peptide: PKcap1-G[Nle][dA]HFR[dW]DR[dF]G-OH
B4: CTX-1148 (peptide)
peptide: PKcap2-G[Nle][dA]HFR[dW]DRFG-OH
B5: CTX-1150 (peptide)
peptide: PKcap2-GV[Nle][dA]HFR[dW]DRFG-OH
B6: CTX-1122 (peptide)
peptide: Ac-[Nle][dA]HFR[dW]DRFG-OH
SMILES: CCCC[C@H](NC(C)=O)C(=O)N[C@H](C)C(=O)N[C@@H](Cc1c[nH]cn1)C(=O)N[C@@H](Cc1ccccc1)C(=O)N[C@@H](CCCNC(=N)N)C(=O)N[C@H](Cc1c[nH]c2ccccc12)C(=O)N[C@@H](CC(=O)O)C(=O)N[C@@H](CCCNC(=N)N)C(=O)N[C@@H](Cc1ccccc1)C(=O)NCC(=O)O
B7: CTX-1163 (peptide)
peptide: Ac-[Nle][dA]HFR[dW]DR-NH2
SMILES: CCCC[C@H](NC(C)=O)C(=O)N[C@H](C)C(=O)N[C@@H](Cc1c[nH]cn1)C(=O)N[C@@H](Cc1ccccc1)C(=O)N[C@@H](CCCNC(=N)N)C(=O)N[C@H](Cc1c[nH]c2ccccc12)C(=O)N[C@@H](CC(=O)O)C(=O)N[C@@H](CCCNC(=N)N)C(N)=O
B8: CTX-1149 (PKcap1, SEQ ID NO 40) (peptide)
peptide: PKcap1-GV[Nle][dA]HFR[dW]DRFG-OH
B9: CTX-1147 (peptide)
peptide: PKcap1-G[Nle][dA]HFR[dW]DRFG-OH
B10: CTX-1154 (peptide)
peptide: PKcap2-G[Nle][dA]HFR[dW]DR[dF]G-OH
B11: CTX-1166 (peptide)
peptide: Ac-[Nle][dA]H[Phe(4-Cl)]R[dW]DRFG-OH
SMILES: CCCC[C@H](NC(C)=O)C(=O)N[C@H](C)C(=O)N[C@@H](Cc1c[nH]cn1)C(=O)N[C@@H](Cc1ccc(Cl)cc1)C(=O)N[C@@H](CCCNC(=N)N)C(=O)N[C@H](Cc1c[nH]c2ccccc12)C(=O)N[C@@H](CC(=O)O)C(=O)N[C@@H](CCCNC(=N)N)C(=O)N[C@@H](Cc1ccccc1)C(=O)NCC(=O)O
B12: CTX-1144 (peptide)
peptide: Ac-[Nle][dAbu]HFR[dW]DRFG-OH
SMILES: CCCC[C@H](NC(C)=O)C(=O)N[C@H](CC)C(=O)N[C@@H](Cc1c[nH]cn1)C(=O)N[C@@H](Cc1ccccc1)C(=O)N[C@@H](CCCNC(=N)N)C(=O)N[C@H](Cc1c[nH]c2ccccc12)C(=O)N[C@@H](CC(=O)O)C(=O)N[C@@H](CCCNC(=N)N)C(=O)N[C@@H](Cc1ccccc1)C(=O)NCC(=O)O
B13: CTX-1168 (peptide)
peptide: Ac-[Nle][dA]H[Bip]R[dW]DRFG-NH2
SMILES: CCCC[C@H](NC(C)=O)C(=O)N[C@H](C)C(=O)N[C@@H](Cc1c[nH]cn1)C(=O)N[C@@H](Cc1ccc(-c2ccccc2)cc1)C(=O)N[C@@H](CCCNC(=N)N)C(=O)N[C@H](Cc1c[nH]c2ccccc12)C(=O)N[C@@H](CC(=O)O)C(=O)N[C@@H](CCCNC(=N)N)C(=O)N[C@@H](Cc1ccccc1)C(=O)NCC(N)=O
B14: CTX-1165 (peptide)
peptide: Ac-[Nle][dA]H[Phe(4-Br)]R[dW]DRFG-OH
SMILES: CCCC[C@H](NC(C)=O)C(=O)N[C@H](C)C(=O)N[C@@H](Cc1c[nH]cn1)C(=O)N[C@@H](Cc1ccc(Br)cc1)C(=O)N[C@@H](CCCNC(=N)N)C(=O)N[C@H](Cc1c[nH]c2ccccc12)C(=O)N[C@@H](CC(=O)O)C(=O)N[C@@H](CCCNC(=N)N)C(=O)N[C@@H](Cc1ccccc1)C(=O)NCC(=O)O
B15: CTX-1155 (peptide)
peptide: PKcap1-G[dY]V[Nle][dA]HFR[dW]D[dR]FG-OH
B16: CTX-1156 (peptide)
peptide: PKcap2-G[dY]V[Nle][dA]HFR[dW]D[dR]FG-OH
B17: CTX-1151 (peptide)
peptide: PKcap1-G[dY]V[Nle][dA]HFR[dW]DRFG-OH

What was measured:
human MC4R = human MC4R (Homo sapiens, UniProt P32245); experiment: Intracellular cAMP levels in live cells, MC3R selectivity relative to MC4R; format: cell-based; settings: cAMP assays in human MC3R and human MC4R stable cell lines
Sequence of human MC4R (P32245 whole entry): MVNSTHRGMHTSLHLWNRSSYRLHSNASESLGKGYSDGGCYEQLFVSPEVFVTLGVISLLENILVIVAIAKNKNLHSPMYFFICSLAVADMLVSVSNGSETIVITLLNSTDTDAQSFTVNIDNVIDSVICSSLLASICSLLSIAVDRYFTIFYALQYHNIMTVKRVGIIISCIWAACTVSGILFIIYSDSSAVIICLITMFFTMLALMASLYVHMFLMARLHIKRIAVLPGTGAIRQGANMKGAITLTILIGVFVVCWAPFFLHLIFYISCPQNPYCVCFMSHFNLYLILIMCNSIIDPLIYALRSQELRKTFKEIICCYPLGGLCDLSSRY
Experimental: The stable cell lines were grown and maintained in selection media consisting of Dulbecco's modified Eagle media (DMEM) with 4.5 g/l D-glucose, and 4 mM L-glutamine (Thermo Fisher Scientific, Waltham, MA), supplemented with 10% fetal bovine serum, 100 units/ml penicillin, 100 μg/ml streptomycin, 2.5 μg/ml amphotericin B, 200 μg/ml hygromycin B (for positive selection of the GScAMP22f luciferase reporter), and Geneticin™ (G418) 700 μg/ml (for MC3R or MC4R selection). Actual serum concentration during the assay is estimated to be about 1%. Cell line identity is routinely verified by qPCR and MC3R- and MC4R-specific oligonucleotides.
The assay for the determination of the CAMP response in live cells was described previously. […] Ccells were seeded at a density of 20,000 cells per well using 384-well poly-D lysine-coated, clear bottom, and black-wall assay plates (Corning Inc. Corning, NJ). Cells were allowed to attach to the plates for 18 to 24 h after which growth media was removed and 20 ul of 4% D-luciferin (Promega) in CO2 independent, serum-free medium (Thermo Fisher Scientific) was added to each well. […] Intracellular cAMP levels were measured using an FDSS 7000EX Functional Drug Screening System (Hamamatsu Photonics, Hamamatsu, Japan) in the Center for Chemical Genomics at the Life Sciences Institute. This instrument allowed the in-line addition of test-peptides and receptor agonists while simultaneously acquiring the luminescence signal from live cells. […] A submaximal forskolin (20 μM) concentration was also included to serve as a normalization reference to account for cell number variations and differences in assay transducer efficiency between cell lines.
With this set up it was possible to evaluate the direct agonist effect of the test-peptides on the MC3R and MC4R cell lines during measurement window 1, while the antagonist profile in the presence of EC90 α-MSH was determined on measurement window 2. […] EC50 or IC50 potency values were determined by non-linear regression by fitting the data to a sigmoid four-parameter variable slope model using the GraphPad Prism version 8.4 software package (San Diego CA).

human MC3R = human MC3R (human, UniProt P41968 1-323); experiment: cell-based or functional assay
Sequence of human MC3R (P41968 whole entry): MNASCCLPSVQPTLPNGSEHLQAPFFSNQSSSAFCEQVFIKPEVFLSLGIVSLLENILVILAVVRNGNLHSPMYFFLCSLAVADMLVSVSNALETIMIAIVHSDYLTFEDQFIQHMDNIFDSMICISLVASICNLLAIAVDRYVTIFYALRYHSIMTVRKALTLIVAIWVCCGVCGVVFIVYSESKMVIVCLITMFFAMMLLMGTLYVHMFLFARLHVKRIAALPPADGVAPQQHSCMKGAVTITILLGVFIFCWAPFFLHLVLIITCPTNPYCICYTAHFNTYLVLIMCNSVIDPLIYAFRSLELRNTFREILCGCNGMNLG

Row | Molecule | MC3R selectivity (relative to MC4R) (human MC4R) | MC3R cAMP (EC50) (human MC3R) | MC3R selectivity (relative to MC4R) (human MC3R)
1 | CCCC[C@H](NC(=O)[C@@H](NC(=O)[C@@H](N)Cc1ccc(O)cc1)C(C)C)C(=O)N[C@H](C)C(=O)N[C@@H](Cc1c[nH]cn1)C(=O)N[C@H](Cc1ccccc1)C(=O)N[C@@H](CCCNC(=N)N)C(=O)N[C@H](Cc1c[nH]c2ccccc12)C(=O)N[C@@H](CC(=O)O)C(=O)N[C@@H](CCCNC(=N)N)C(=O)N[C@@H](Cc1ccccc1)C(=O)NCC(=O)O [CTX-1104, Tyr-Val-Nle-D-Ala-His-D-Phe-Arg-D-Trp-Asp-Arg-Phe-Gly] (H-YV[Nle][dA]H[dF]R[dW]DRFG-OH) | 27 | – | –
2 | CCCC[C@H](NC(=O)[C@@H](NC(=O)[C@@H](N)Cc1ccc(O)cc1)C(C)C)C(=O)NCC(=O)N[C@@H](Cc1c[nH]cn1)C(=O)N[C@H](Cc1ccccc1)C(=O)N[C@@H](CCCNC(=N)N)C(=O)N[C@H](Cc1c[nH]c2ccccc12)C(=O)N[C@@H](CC(=O)O)C(N)=O [CTX-1107, Tyr-Val-Nle-Gly-His-D-Phe-Arg-D-Trp-Asp] (H-YV[Nle]GH[dF]R[dW]D-NH2) | 2.4 | – | –
3 | CC(=O)N[C@@H](CO)C(=O)NCC(=O)N[C@@H](Cc1c[nH]cn1)C(=O)N[C@H](Cc1ccccc1)C(=O)N[C@@H](CCCNC(=N)N)C(=O)N[C@H](Cc1c[nH]c2ccccc12)C(=O)N[C@@H](CC(=O)O)C(N)=O [CTX-1111, Ser-Gly-His-D-Phe-Arg-D-Trp-Asp] (Ac-SGH[dF]R[dW]D-NH2) | 0.1 | – | –
4 | CC(=O)N[C@H](C(=O)NCC(=O)N[C@@H](Cc1c[nH]cn1)C(=O)N[C@@H](Cc1ccccc1)C(=O)N[C@@H](CCCNC(=N)N)C(=O)N[C@H](Cc1c[nH]c2ccccc12)C(=O)N[C@@H](CC(=O)O)C(N)=O)[C@@H](C)O [CTX-1112, Thr-Gly-His-Phe-Arg-D-Trp-Asp] (Ac-TGHFR[dW]D-NH2) | 8.6 | – | –
5 | CC(=O)N[C@H](C(=O)NCC(=O)N[C@@H](Cc1c[nH]cn1)C(=O)N[C@H](Cc1ccccc1)C(=O)N[C@@H](CCCNC(=N)N)C(=O)N[C@H](Cc1c[nH]c2ccccc12)C(=O)N[C@@H](CC(=O)O)C(N)=O)[C@@H](C)O [CTX-1113, Thr-Gly-His-D-Phe-Arg-D-Trp-Asp] (Ac-TGH[dF]R[dW]D-NH2) | 0.4 | – | –
6 | CCCC[C@H](NC(C)=O)C(=O)N[C@H](C)C(=O)N[C@@H](Cc1c[nH]cn1)C(=O)N[C@@H](Cc1ccccc1)C(=O)N[C@@H](CCCNC(=N)N)C(=O)N[C@H](Cc1c[nH]c2ccccc12)C(=O)N[C@@H](CC(=O)O)C(N)=O [CTX-1123, Nle-D-Ala-His-Phe-Arg-D-Trp-Asp] (Ac-[Nle][dA]HFR[dW]D-NH2) | 28 | – | –
7 | B1 | – | 54 nM | 234
8 | B2 | – | 1.5 nM | 83
9 | B3 | – | 5120 nM | 0.13
10 | B4 | – | 1.5 nM | 1200
11 | B5 | – | 2.9 nM | 577
12 | B6 | – | 1.2 nM | 7700
13 | B7 | – | 19.4 nM | 282
14 | B8 | – | 313 nM | 215
15 | B9 | – | 556 nM | 335
16 | B10 | – | 5.8 nM | 1070
17 | B11 | – | 1.6 nM | 3100
18 | B12 | – | 6.6 nM | 2630
19 | B13 | – | 28.6 nM | 485
20 | B14 | – | 3 nM | 5600
21 | B15 | – | 3130 nM | 415
22 | B16 | – | 8.6 nM | 86
23 | B17 | – | 299 nM | 126
